For assay [1], the target named is T1, TR1Fc (human, UniProt O00300 22-401, limits assumed).
T1 construct: also called TR1 Fc fusion protein; TR1 (osteoprotegerin, OPG) fused to hinge-CH2-CH3 of human IgG1
T1 sequence: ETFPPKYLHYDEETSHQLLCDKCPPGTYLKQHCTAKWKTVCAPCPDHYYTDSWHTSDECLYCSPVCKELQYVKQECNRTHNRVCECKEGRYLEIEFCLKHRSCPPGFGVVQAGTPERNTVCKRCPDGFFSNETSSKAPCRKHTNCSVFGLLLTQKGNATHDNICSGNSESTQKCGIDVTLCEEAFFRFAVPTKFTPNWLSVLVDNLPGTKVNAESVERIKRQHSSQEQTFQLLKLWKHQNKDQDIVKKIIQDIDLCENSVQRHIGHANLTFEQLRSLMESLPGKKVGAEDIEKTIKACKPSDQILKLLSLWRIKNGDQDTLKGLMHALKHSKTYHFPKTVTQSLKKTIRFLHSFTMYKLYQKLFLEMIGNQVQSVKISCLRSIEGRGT
Kind of assay: SPR (BIAcore 2000), Fc fusion captured on immobilized protein A, ligand injected. How it is done:
(§1) Surface plasmon resonance. Protein A was immobilized on to a research grade carboxymethyldextran chip (CM5) using amin coupling procedures described previously (4). Flow cell 1 was activated with NHS/EDC for 5 min. Protein A was injected a a concentration of 1 ug/ml in NaOAc buffer (10 mM, pH 5.0) until 1000RUs of protein were coupled. Remaining activated groups were blocked with a 7 min injection of 1M ethanolamine. A control surface was created by repeating the coupling procedure in a flow cell2 without incorporating protein A. In a BIAcore 2000 biosensor (BIAcore Inc. Uppsala, Sweden) TR1Fc or TR2Fc were then injected at a flow rate of 100 ul/min followed by injection of TL2 or TL4, and the binding to receptor monitored by chances in surface plasmon resonance relative to the control chip. In these experiments, TR1Fc bound to TL2 but not TL4 and TR2Fc bound to TL4 but not TL2.

The target in assay [2] is T2, sTL2 (Homo sapiens (Human), UniProt P50591 97-281).
T2 construct: also called soluble TL2; TRAIL
T2 sequence (P50591 97-281): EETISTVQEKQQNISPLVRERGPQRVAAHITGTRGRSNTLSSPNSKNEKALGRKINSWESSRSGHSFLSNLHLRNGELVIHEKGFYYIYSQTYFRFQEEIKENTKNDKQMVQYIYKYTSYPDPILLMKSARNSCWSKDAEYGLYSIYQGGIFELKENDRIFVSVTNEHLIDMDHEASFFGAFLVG
The description is as above. How it is done: as §1

B1: sTL4 (ligand, not shown: small tags and cut ends)
chain: HHHHHHSDDDDKQERRSHEVNPAAHLTGANSSLTGSGGPLLWETQLGLAFLRGLSYHDGALVVTKAGYYYIYSKVQLGGVGCPLGLASTITHGLYKRTPRYPEELELLVSQQSPCGRATSSSRVWWDSSFLGGVVHLEAGEKVVVRVLDERLVRLRDGTRSYFGAFMV
notes: also called soluble TL4
As to B1, the binding result in assay [1] is given as “no binding”.

B2: TR2Fc (Fc fusion, not shown: a dimerising Fc or GST)
chain: LPFCKEDEYPVGSECCPKCSPGYRVKEACGELTGTVCEPCPPGTYIAHLNGLSKCLQCQMCDPAMGLRASRNCSRTENAVCGCSPGHFCIVQDGDHCAACRAYATSSPGQRVQKGGTESQDTLCQNCPPGTFSPNGTLEECQHQTKCSWLVTKARSIEGRGT
notes: Secreted from mammalian cells as a dimer and purified on protein A. Residues 1-192 include the putative leader peptide, which is removed on secretion; also called TR2 (HVEM) extracellular domain fused to hinge-CH2-CH3 of human IgG1; product of plasmid TR2Fclink
As to B2, the binding result in assay [2] is recorded as “no binding”.

For the origin of these results see patent US20020115110A1 (GlaxoSmithKline, published 2002).
